Patent US12428446B2, “Peptide compound or pharmaceutically acceptable salt thereof” (Eyebio Korea, priority 2019, dated 2025)
*1 amine or outer side, *2 acyl side, *3 side chain or, on linkers, in order; H or OH if unused. Primed or numbered codes have the meaning given here. Where no end group is shown, it is not given here. [ ]: non-standard residue; d: D form. Pro(trans-4-NH2) = O=C([C@@H]1C[C@@H](N[*:3])CN1[*:1])[*:2]; Pro(cis-4-F) = O=C(O)[C@@H]1C[C@H](F)CN1; Pro(4,4-Me2) = CC1(C)CN[C@H](C(=O)O)C1; Asu′ = aspartimide (aminosuccinimide); Hyp = O=C(O)[C@@H]1C[C@@H](O)CN1; dHyp = O=C(O)[C@H]1C[C@H](O)CN1

Legend:
[1] = Evaluation of dissolution stability (content change on storage in dissolved state); format: physicochemical; conditions: 1 mg/1 ml dissolved state, 40° C. and RH 75%
[2] = tested on: IL-1β secretion, Raw 264.7 cells; assay: Anti-inflammatory efficacy: IL-1β ELISA in LPS-stimulated Raw 264.7 macrophages; format: cell-based, mouse; conditions: for IL-1β level increased by LPS: 1 h pretreatment, LPS 1 μg/ml 24 h; for anti-inflammatory effect by regulating the secretion of IL-1β: summary, concentration not given
Protocol: (§1) An anti-inflammatory efficacy was evaluated for representative examples of the above examples. Specifically, in order to confirm whether Examples 10, 32, 41, 55, 59 and 91, which are representative examples of 5 amino acid residues, Examples 11 and 30, which are representative examples of 6 amino acid residues, Example 86, which is a representative example of 7 amino acid residues, and Examples 103 and 104, which are representative examples of 8 amino acid residues, have an anti-inflammatory effect, a change in the secretion amount of inflammatory cytokines was confirmed by enzyme-linked immunosorbent assay (ELISA) using Raw 264.7 cells, which are macrophage (monocyte) cell lines.
(§2) Specifically, the Examples were diluted in Raw264.7 cells (Korean Cell Line Bank, 40071) at a concentration of 10 nM, 100 nM, 1 μM, and 10 μM, respectively, and pretreated for 1 hour, and then LPS (Sigma, L6529) at a concentration of 1 μg/ml was added to induce an inflammatory response. After 24 hours of induction, the cell culture supernatant was collected and analyzed. Enzyme-linked immunosorbent assay was performed using Mouse IL-6 Quantikine ELISA Kit (R&D systems, M6000B), TNF-alpha Quantikine ELISA Kit (R&D systems, MTA00B), Mouse IL-1 beta/IL-1F2 Quantikine ELISA Kit (R&D systems, MLB00C) in accordance with the manufacturer's manual.

[3] = tested on: TNFα secretion, Raw 264.7 cells; assay: Anti-inflammatory efficacy: TNFα ELISA in LPS-stimulated Raw 264.7 macrophages; format: cell-based, mouse
Protocol: as §1, §2

Substance | Day 1 content (%) [1] [%] | Day 3 content (%) [1] [%] | Day 7 content (%) [1] [%] | Initial content (%) [1] [%] | IL-1β level increased by LPS ([2]; 100 nM peptide) | anti-inflammatory effect by regulating the secretion of IL-1β [2] | TNFα level increased by LPS ([3]; 10 nM peptide, 1 h pretreatment, LPS 1 μg/ml 24 h) | anti-inflammatory activity by regulating the secretion of TNFα ([3]; summary, concentration not given) | IL-1β level increased by LPS ([2]; 1 μM peptide) | IL-1β level increased by LPS ([2]; 10 nM peptide) | IL-1β level increased by LPS ([2]; 10 μM peptide)
4,4-dimethyl Pro-Gly-Gln-Asp-Gly ([Pro(4,4-Me2)]GQDG) [Example 55] | 94.34 | 90.29 | 81.00 | 97.82 | significantly reduced | significant anti-inflammatory effect | – | – | – | – | –
Gln-Asu-Gly-Leu-Ala-Gly-Pro-Lys (Q[Asu′]GLAGPK) [Example 104] | 96.52 | 93.78 | 93.01 | 94.22 | – | – | significantly reduced | significant anti-inflammatory activity | – | – | –
Hyp-Gly-Gln-Asu-Gly-Leu-Ala-Gly ([Hyp]GQ[Asu′]GLAG) [Example 103] | 97.20 | 96.90 | 94.88 | 97.09 | – | significant anti-inflammatory effect | – | – | significantly reduced | – | –
Hyp-Gly-Gln-Glu-Leu-Leu-Ala ([Hyp]GQELLA) [Example 86] | 97.40 | 97.77 | 97.55 | 98.16 | – | significant anti-inflammatory effect | – | – | significantly reduced | significantly reduced | significantly reduced
QEGLAG [Example 70] | 90.84 | 88.52 | 85.77 | 92.41 | – | – | – | – | – | – | –
QLGLAGPK [Example 18] | 53.91 | 36.72 | 13.41 | 82.99 | – | – | – | – | – | – | –
[Hyp]GQDVLA [Example 37] | 98.64 | 97.76 | 93.55 | 98.59 | – | – | – | – | – | – | –
[Hyp]GQ[dD]GLA [Example 64] | 91.62 | 86.18 | 48.37 | 96.19 | – | – | – | – | – | – | –
[Hyp]G[dQ]DGL [Example 60] | 92.72 | 88.92 | 58.84 | 97.21 | – | – | – | – | – | – | –
[Hyp]G[dQ]DGLA [Example 63] | 88.74 | 81.41 | 64.20 | 94.37 | – | – | – | – | – | – | –
[dHyp]GQDG [Example 40] | 81.96 | 70.04 | 51.11 | 89.95 | – | – | – | – | – | – | –
cis-4F Pro-Gly-Gln-Asp-Gly-Leu-Ala ([Pro(cis-4-F)]GQDGLA) [Example 51] | 83.35 | 72.55 | 49.31 | 92.07 | – | – | – | – | – | – | –
cis-4F-Pro-Gly-Gln-Asp-Gly-Leu ([Pro(cis-4-F)]GQDGL) [Example 46] | 87.32 | 81.37 | 62.32 | 93.29 | – | – | – | – | – | – | –
trans-4NH2-Pro-Gly-Gln-Asp-Gly ([Pro(trans-4-NH2)]GQDG) [Example 42] | 65.09 | 52.07 | 37.87 | 71.84 | – | – | – | – | – | – | –
trans-4NH2-Pro-Gly-Gln-Asp-Gly-Leu ([Pro(trans-4-NH2)]GQDGL) [Example 47] | 84.03 | 75.02 | 51.42 | 94.90 | – | – | – | – | – | – | –
trans-4NH2-Pro-Gly-Gln-Asp-Gly-Leu-Ala ([Pro(trans-4-NH2)]GQDGLA) [Example 52] | 86.35 | 74.65 | 54.51 | 96.55 | – | – | – | – | – | – | –
